Test results as given in patent US20180155451A1 (published 2018).

T1: FcγRIIb extracellular domain with C-terminal His tag (human, UniProt P31994 43-217)
T1 construct: extracellular domain; also called FcgRIIb; 2b; not shown: His tag at the C terminus
T1 sequence (looked up): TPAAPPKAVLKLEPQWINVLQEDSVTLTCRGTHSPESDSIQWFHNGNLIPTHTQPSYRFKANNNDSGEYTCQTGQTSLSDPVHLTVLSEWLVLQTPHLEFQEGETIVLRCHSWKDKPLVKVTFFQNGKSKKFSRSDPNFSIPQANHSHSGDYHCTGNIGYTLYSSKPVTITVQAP

T2: FcγRIIa H (human, UniProt P12318 34-217)
T2 construct: extracellular domain; Soluble His-tagged extracellular domain expressed in FreeStyle293 cells; also called FcγRIIa type H; FcgRIIa H; not shown: His tag attached to the C terminus
T2 sequence (looked up): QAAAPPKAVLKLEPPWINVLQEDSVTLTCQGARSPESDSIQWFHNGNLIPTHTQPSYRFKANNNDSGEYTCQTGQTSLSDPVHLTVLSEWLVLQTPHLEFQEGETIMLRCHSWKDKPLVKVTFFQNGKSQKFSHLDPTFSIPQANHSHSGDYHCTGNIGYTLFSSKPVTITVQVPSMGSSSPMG

T3: FcγRIIb (human, UniProt P31994 43-217)
T3 construct: extracellular domain; Soluble His-tagged extracellular domain expressed in FreeStyle293 cells; also called FcgRIIb; 2b; not shown: His tag attached to the C terminus
T3 sequence (looked up): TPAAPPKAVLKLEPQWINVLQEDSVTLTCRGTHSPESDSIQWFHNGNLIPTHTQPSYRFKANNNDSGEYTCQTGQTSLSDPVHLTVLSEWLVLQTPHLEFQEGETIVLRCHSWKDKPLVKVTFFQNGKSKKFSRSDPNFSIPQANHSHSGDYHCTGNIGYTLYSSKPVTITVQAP


Assays:
[1] = target: T4, FcγRIIIa extracellular domain with C-terminal His tag (human, UniProt P08637 17-208); test: SPR (Biacore), antibody captured via antigen peptide, FcγR as analyte; binding relative to GpH7-A5/GpH7-B3/GpL16-k0 = 100
T4 construct: extracellular domain; also called FcgRIIIa; 3a; not shown: His tag at the C terminus
T4 sequence (P08637 17-208): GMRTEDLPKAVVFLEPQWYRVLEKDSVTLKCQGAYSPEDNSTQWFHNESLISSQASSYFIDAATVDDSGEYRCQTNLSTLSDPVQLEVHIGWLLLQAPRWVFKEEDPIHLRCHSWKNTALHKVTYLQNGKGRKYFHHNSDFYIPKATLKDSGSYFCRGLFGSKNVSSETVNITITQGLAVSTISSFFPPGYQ

[2] = target: T1, FcγRIIb extracellular domain with …; test: as above
FcγRIIa H [3] = target: T2, FcγRIIa H; test: SPR (Biacore), captured antibody, FcγR analyte; relative to GpH7-A5/GpH7-B3/GpL16-k0 = 100
Method: (§1) Analysis of interaction between objective antibody and the FcγR was carried out using Biacore T100 (GE Healthcare). HBS-EP+ (GE Healthcare) was used as the running buffer, and the measurement temperature was set to 25° C. Chips produced by immobilizing the antigen peptide by the amine coupling method to a Series S Sencor Chip CM5 (GE Healthcare), or alternatively, chips produced by allowing preliminarily biotinylated antigen peptides to interact with and immobilize onto a Series S Sensor Chip SA (certified) (GE Healthcare) were used. Antibodies of interest were captured onto an antigen peptide-immobilized chip, and allowed to interact to each FcγR diluted with running buffer. To regenerate and repeatedly use the chip, the antibodies captured on the chip were washed off by reacting 10 mM glycine-HCl, pH 1.5.
(§2) The FcγR-binding activity of each antibody was assessed primarily using as an indicator the FcγR-binding activity and dissociation constant for FcγR.

FcγRIIb = target: T3, FcγRIIb; test: as above
Method: as §1, §2

FcγRIIa H [4] = target: T2, FcγRIIa H; test: SPR (Biacore); He/Con_2aH divided by He/Con_2b (FcγRIIb) of the same antibody
Method: The heterodimerized antibodies He Abs in which one of the H chains was introduced with an alteration were assayed for their binding activities to each activating FcγR and inhibitory FcγR according to the method described in Example 4. […] The activating FcγRs in FIGS. 26, 27, 28, and 29 are FcγRIa, FcγRIIa (R), FcγRIIa (H), and FcγRIIIa, respectively.
as §1

| Binder | He/Con_3a [1] | He/Con_2b [2] | He/Con_2aH (FcγRIIa H [3]) | He/Con_2b (FcγRIIb) | He_2aH/2b (FcγRIIa H [4]) |
| --- | --- | --- | --- | --- | --- |
| GpH7-A5/GpH7-B3 variant I336_02A/GpL16-k0 (antibody, human IgG1, kappa, He Ab: the mutation stands only in the GpH7-B3-derived H chain; also called He Ab I336A) heavy 1: not shown heavy 2: not shown light: DIVMTQSPLSLPVTPGEPASISCQASESLVHSNRNTYLHWYLQKPGQSPQLLIYKVSNRFSGVPDRFSGSGSGTDFTLKISRVEAEDVGVYYCSQNTHVPPTFGQGTKVEIERTVAAPSVFIFPPSDEQLKSGTASVVCLLNNFYPREAKVQWKVDNALQSGNSQESVTEQDSKDSTYSLSSTLTLSKADYEKHKVYACEVTHQGLSSPVTKSFNRGEC | 111 relative (control = 100) | 84.9 relative (control = 100) | – | – | – |
| GpH7-A5/GpH7-B3 variant P331_03V/GpL16-k0 (antibody, human IgG1, kappa, Heterodimerized anti-glypican-3 IgG1; mutation in the GpH7-B3 H chain only; also called He Ab) heavy 1: not shown heavy 2: not shown light: DIVMTQSPLSLPVTPGEPASISCQASESLVHSNRNTYLHWYLQKPGQSPQLLIYKVSNRFSGVPDRFSGSGSGTDFTLKISRVEAEDVGVYYCSQNTHVPPTFGQGTKVEIERTVAAPSVFIFPPSDEQLKSGTASVVCLLNNFYPREAKVQWKVDNALQSGNSQESVTEQDSKDSTYSLSSTLTLSKADYEKHKVYACEVTHQGLSSPVTKSFNRGEC | – | – | 82.5 relative (control = 100) | 119 relative (control = 100) | 0.7 ratio |
| GpH7-A5/GpH7-B3 variant N325_20W/GpL16-k0 (antibody, human IgG1, kappa, Heterodimerized anti-glypican-3 IgG1; mutation in the GpH7-B3 H chain only; also called He Ab) heavy 1: not shown heavy 2: not shown light: DIVMTQSPLSLPVTPGEPASISCQASESLVHSNRNTYLHWYLQKPGQSPQLLIYKVSNRFSGVPDRFSGSGSGTDFTLKISRVEAEDVGVYYCSQNTHVPPTFGQGTKVEIERTVAAPSVFIFPPSDEQLKSGTASVVCLLNNFYPREAKVQWKVDNALQSGNSQESVTEQDSKDSTYSLSSTLTLSKADYEKHKVYACEVTHQGLSSPVTKSFNRGEC | – | – | 47.2 relative (control = 100) | 169 relative (control = 100) | 0.28 ratio |
| GpH7-A5/GpH7-B3 variant I336_09D/GpL16-k0 (antibody, human IgG1, kappa, He Ab: the mutation stands only in the GpH7-B3-derived H chain; also called He Ab I336D) heavy 1: not shown heavy 2: not shown light: DIVMTQSPLSLPVTPGEPASISCQASESLVHSNRNTYLHWYLQKPGQSPQLLIYKVSNRFSGVPDRFSGSGSGTDFTLKISRVEAEDVGVYYCSQNTHVPPTFGQGTKVEIERTVAAPSVFIFPPSDEQLKSGTASVVCLLNNFYPREAKVQWKVDNALQSGNSQESVTEQDSKDSTYSLSSTLTLSKADYEKHKVYACEVTHQGLSSPVTKSFNRGEC | 106 relative (control = 100) | 92.1 relative (control = 100) | – | – | – |
| GpH7-A5/GpH7-B3 variant N325_15Y/GpL16-k0 (antibody, human IgG1, kappa, Heterodimerized anti-glypican-3 IgG1; mutation in the GpH7-B3 H chain only; also called He Ab) heavy 1: not shown heavy 2: not shown light: DIVMTQSPLSLPVTPGEPASISCQASESLVHSNRNTYLHWYLQKPGQSPQLLIYKVSNRFSGVPDRFSGSGSGTDFTLKISRVEAEDVGVYYCSQNTHVPPTFGQGTKVEIERTVAAPSVFIFPPSDEQLKSGTASVVCLLNNFYPREAKVQWKVDNALQSGNSQESVTEQDSKDSTYSLSSTLTLSKADYEKHKVYACEVTHQGLSSPVTKSFNRGEC | – | – | 41.2 relative (control = 100) | 99.5 relative (control = 100) | 0.41 ratio |

Continued, values first:

| He/Con_3a [1] | He/Con_2b [2] | He/Con_2aH (FcγRIIa H [3]) | He/Con_2b (FcγRIIb) | He_2aH/2b (FcγRIIa H [4]) | Binder |
| --- | --- | --- | --- | --- | --- |
| – | – | 55.5 relative (control = 100) | 94.7 relative (control = 100) | 0.59 ratio | GpH7-A5/GpH7-B3 variant S324_05P/GpL16-k0 (antibody, human IgG1, kappa, Heterodimerized anti-glypican-3 IgG1; mutation in the GpH7-B3 H chain only; also called He Ab) heavy 1: not shown heavy 2: not shown light: DIVMTQSPLSLPVTPGEPASISCQASESLVHSNRNTYLHWYLQKPGQSPQLLIYKVSNRFSGVPDRFSGSGSGTDFTLKISRVEAEDVGVYYCSQNTHVPPTFGQGTKVEIERTVAAPSVFIFPPSDEQLKSGTASVVCLLNNFYPREAKVQWKVDNALQSGNSQESVTEQDSKDSTYSLSSTLTLSKADYEKHKVYACEVTHQGLSSPVTKSFNRGEC |
| – | – | 84.5 relative (control = 100) | 116 relative (control = 100) | 0.73 ratio | GpH7-A5/GpH7-B3 variant P331_16H/GpL16-k0 (antibody, human IgG1, kappa, Heterodimerized anti-glypican-3 IgG1; mutation in the GpH7-B3 H chain only; also called He Ab) heavy 1: not shown heavy 2: not shown light: DIVMTQSPLSLPVTPGEPASISCQASESLVHSNRNTYLHWYLQKPGQSPQLLIYKVSNRFSGVPDRFSGSGSGTDFTLKISRVEAEDVGVYYCSQNTHVPPTFGQGTKVEIERTVAAPSVFIFPPSDEQLKSGTASVVCLLNNFYPREAKVQWKVDNALQSGNSQESVTEQDSKDSTYSLSSTLTLSKADYEKHKVYACEVTHQGLSSPVTKSFNRGEC |
